Data taken from patent US20240240209A1, “SYNTHESIS OF ENANTIOPURE CIS-A-IRONE FROM A RENEWABLE CARBON SOURCE” (Agency for Science, Technology and Research, priority 2021, published 2024).
Substitutions are numbered along the chain they refer to.

B1: T13M (protein)
chain: MPQEARTPQQQVMADEVGDWYDKFGEVYHLTLGESVHCGLWFPPDAPVPQDMELVTMSSQAQDRFTDYLIETLDPKAGQHLLDIGCGTGRPALKAARQRGIAVTGVAVSKEQIAAANRLAAGHGLTERLTFEVADAMRLPYEDESFDCAWAIESLDHMDRAKALGEAWRVLKPGGDLLVAEEVVTEELTEPETALFETLFALNVPPRLGEFFDIVSGAGFHTLSLKDLSADLAMTMNVFALGVYSRRAEFTERFGAEFVDGLLAGLGSAQETVIRKTRFFMATLRKPAV
modifications: Modified from pMT1
B2: L129C (protein)
chain: B1 chain with M13T, L129C
modifications: Modified from pMT1
B3: M137G (protein)
chain: B1 chain with M13T, M137G
modifications: Modified from pMT1
B4: M137D (protein)
chain: B1 chain with M13T, M137D
modifications: Modified from pMT1
B5: A14L (protein)
chain: B1 chain with M13T, A14L
modifications: Modified from pMT1
B6: A269L (protein)
chain: B1 chain with M13T, A269L
modifications: Modified from pMT1
B7: M137N (protein)
chain: B1 chain with M13T, M137N
modifications: Modified from pMT1
B8: A14G (protein)
chain: B1 chain with M13T, A14G
modifications: Modified from pMT1
B9: E192S (protein)
chain: B1 chain with M13T, E192S
modifications: Modified from pMT1
B10: A14P (protein)
chain: B1 chain with M13T, A14P
modifications: Modified from pMT1
B11: L195I (protein)
chain: B1 chain with M13T, L195I
modifications: Modified from pMT1
B12: M137S (protein)
chain: B1 chain with M13T, M137S
modifications: Modified from pMT1
B13: S268K (protein)
chain: B1 chain with M13T, S268K
modifications: Modified from pMT1
B14: A95I (protein)
chain: B1 chain with M13T, A95I
modifications: Modified from pMT1
B15: A95V (protein)
chain: B1 chain with M13T, A95V
modifications: Modified from pMT1
B16: T13A (protein)
chain: B1 chain with M13A
modifications: Modified from pMT1
B17: A14M (protein)
chain: B1 chain with M13T, A14M
modifications: Modified from pMT1
B18: M137A (protein)
chain: B1 chain with M13T, M137A
modifications: Modified from pMT1
B19: K94R (protein)
chain: B1 chain with M13T, K94R
modifications: Modified from pMT1
B20: T13G (protein)
chain: B1 chain with M13G
modifications: Modified from pMT1
B21: S268R (protein)
chain: B1 chain with M13T, S268R
modifications: Modified from pMT1
B22: A269Y (protein)
chain: B1 chain with M13T, A269Y
modifications: Modified from pMT1
B23: A14T (protein)
chain: B1 chain with M13T, A14T
modifications: Modified from pMT1
B24: L129V (protein)
chain: B1 chain with M13T, L129V
modifications: Modified from pMT1
B25: A269R (protein)
chain: B1 chain with M13T, A269R
modifications: Modified from pMT1
B26: A269G (protein)
chain: B1 chain with M13T, A269G
modifications: Modified from pMT1
B27: T13Q (protein)
chain: B1 chain with M13Q
modifications: Modified from pMT1
B28: M137H (protein)
chain: B1 chain with M13T, M137H
modifications: Modified from pMT1
B29: L129K (protein)
chain: B1 chain with M13T, L129K
modifications: Modified from pMT1
B30: L195V (protein)
chain: B1 chain with M13T, L195V
modifications: Modified from pMT1
B31: S268Q (protein)
chain: B1 chain with M13T, S268Q
modifications: Modified from pMT1
B32: S268L (protein)
chain: B1 chain with M13T, S268L
modifications: Modified from pMT1
B33: A14R (protein)
chain: B1 chain with M13T, A14R
modifications: Modified from pMT1
B34: K94V (protein)
chain: B1 chain with M13T, K94V
modifications: Modified from pMT1

Assay: In-vivo cis-α-irone production screening of pMT7 and pMT12 mutants
Assay type: cell-based, Escherichia coli
Conditions: mutations made to pMT12; normalized to pMT12 (=1)
Excerpt: Q60 was identified as another possible mutation site.
FIGS. 24a and 24b show the in-vivo and in-vitro cis-α-irone production of other possible single mutations to pMT12. The in-vitro results in FIG. 24b validate the mutations and in-vivo results in FIG. 24a. The mutations in FIG. 24 include Q11H (SEQ ID No. 23), V12R (SEQ ID No. 24), A95C (SEQ ID No. 25), H123Q (SEQ ID No. 26), E127T (SEQ ID No. 27), M137T (SEQ ID No. 28), D176V (SEQ ID No. 29), D176Y (SEQ ID No. 30). P191S (SEQ ID No. 31), P191V (SEQ ID No. 32), F212L (SEQ ID No. 33), S268H (SEQ ID No. 34), AND T272A (SEQ ID No. 35). The screening results in FIGS. 24 and 25 are semi-quantitative to identify beneficial mutants that give greater than one-fold change of irone production as compared to pMT12.
FIGS. 25a to 25c (and Table 4) show the in-vivo testing results of other possible mutations that may be made to pMT12 to improve its in-vivo production of cis-α-irone. FIGS. 25a to 25c each include two dotted lines to account for a 10% error bar to show the normalized fold change of 0.9 and 1.1.
The four plasmids were transformed into E. coli BL21 (DE3), ΔaroA, ΔaroB, ΔaroC, ΔserC or E. coli BL21 (DE3), ΔaroA, ΔaroB, ΔaroC, ΔserC, ΔmetJ strains and plated on Agar plate containing LB media (10 g, tryptone. 5 g, yeast extract. 10 g, NaCl) supplemented with appropriate antibiotics (100 mg/L ampicillin, 34 mg/L chloramphenicol, 50 mg/L kanamycin, and 100 mg/L spectinomycin). One colony was picked and inoculate into LB media with antibiotics. 1% of overnight culture was inoculated into 1 ml fresh auto-inducing chemically defined media. The chemical media contains carbon source solution: 0.5 g/L glucose, 10 g/L glycerol; inducer: 30 mM lactose and base media: 2 g/L ammonium sulfate, 4.2 g/L KH2PO4, 11.24 g/L K2HPO4, 1.7 g/L citric acid, 0.5 g/L MgSO4, and 10 mL/L trace element solution. The trace element solution (100×) contained 0.25 g/L CoCl2·6H2O, 1.5 g/L MnSO4·4H2O, 0.15 g/L CuSO4·2H2O, 0.3 g/L H3BO3, 0.25 g/L Na2MoO4·2H2O, 0.8 g/L Zn(CH3COO)2, 5 g/L Fe(III) citrate, and 0.84 g/L ethylenediaminetetra-acetic acid (EDTA) at pH 8.0. The culture was grown at 28° C. for 3 days and the products were extracted with 1 ml hexane for GCMS analysis. An example of a fed-batch process for α-ionone Is briefly described, overnight culture was inoculated into 2 L chemical media comprising the base media and 5 g/L glucose, at 37° C. and 30% DO. pH was controlled at 7 with base solution (14% ammonia and 0.5 M NaOH). Feed media (500 g/L glucose and 5 g/L MgSO4) was added into bioreactor once OD600 reached 5, at a rate of 7.15-25.75 g/h glucose for about 4-5 h until OD600 reached ˜30-40. Subsequently, 0.1 mM IPTG was added to induce the production, and feeding rate was kept at a constant rate of 10 g/h glucose, and the temperature was reduced to 30° C. DO was adjusted to 2% or 10%. Feeding was stopped at 113 h when 2 L feeding media was finished, but the culture was further incubated for 24 h. To capture the evaporated products, the exhaust was connected to 25 ml sunflower oil.

Molecule | Fold change in in-vivo cis-α-irone production
B1 | 0.97
B2 | 1.08
B3 | 1.15
B4 | 1.13
B5 | 0.92
B6 | 1.29
B7 | 1.11
B8 | 0.92
B9 | 0.97
B10 | 0.92
B11 | 1.08
B12 | 1.11
B13 | 1.35
B14 | 0.98
B15 | 0.94
B16 | 0.91
B17 | 0.94

Molecule | Fold change in in-vivo cis-α-irone production
B18 | 1.15
B19 | 0.97
B20 | 0.91
B21 | 1.23
B22 | 1.21
B23 | 0.90
B24 | 1.03
B25 | 1.22
B26 | 1.23
B27 | 0.93
B28 | 1.11
B29 | 1.00
B30 | 1.02
B31 | 1.32
B32 | 1.18
B33 | 0.93
B34 | 0.84
